Source: patent publication US20120271036A1
Read-outs that look alike come from different tables or passages of the source.

Assays:
[1] = target: Cul5(N), human Cullin5 residues 2-384 (V341R, L345D) after removal of GST (human) (UniProt Q93034); test: ITC, 30 C
[2] = target: Cul5(N), human Cullin5 residues 2-384 (V341R, L345D) after removal of GST (human) (UniProt Q93034)
[3] = target: Cul5(N), human Cullin5 residues 2-384 (V341R, L345D) after removal of GST (human) (UniProt Q93034); test: ITC; one set of sites model
[4] = target: Cul5(N), human Cullin5 residues 2-384 (V341R, L345D) after removal of GST (human) (UniProt Q93034); remark: listed apart in the source
[5] = target: Cul5(N), human Cullin5 residues 2-384 (V341R, L345D) after removal of GST (human) (UniProt Q93034); test: ITC, one set of sites fit of one isotherm with the actual BCvifVF concentration

Chain of Cul5(N), human Cullin5 residues 2-384 (V341R, L345D) after removal of GST (human) (Q93034 other isoform, or with tags, fused parts or gaps V341R L345D V341R L345D): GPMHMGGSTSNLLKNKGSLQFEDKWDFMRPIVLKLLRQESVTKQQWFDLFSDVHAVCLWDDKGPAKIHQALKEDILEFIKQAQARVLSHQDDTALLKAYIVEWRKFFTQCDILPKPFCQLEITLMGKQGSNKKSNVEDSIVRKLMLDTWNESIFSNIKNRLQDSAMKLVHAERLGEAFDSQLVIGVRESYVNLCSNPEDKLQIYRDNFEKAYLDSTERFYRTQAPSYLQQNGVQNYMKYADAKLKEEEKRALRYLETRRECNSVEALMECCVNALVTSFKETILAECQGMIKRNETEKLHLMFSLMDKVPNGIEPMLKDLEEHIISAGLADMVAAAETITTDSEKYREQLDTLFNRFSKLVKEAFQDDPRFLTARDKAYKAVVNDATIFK

With “BCvif95-192: EloB (1-118) / EloC (17-112) / Vif (95-192) (from UniProt P69723 95-192)” the ΔH [1] was -5.24 kcal/mol, the N [2] was 1.01 and the ΔS [2] was 11.1.

Work on “BCvifSS: EloB (1-118) / EloC (17-112) / vif (95-192) (A123S, L124S) (from UniProt P69723 95-192)” yielded a ΔH [1] of -7.28 kcal/mol and a n (ITC binding stoichiometry) [3] of 1.01.

“BCvifVF: EloB (1-118) / EloC (17-112) / vif (95-192) (A123V, L124F) (from UniProt P69723 95-192)” gave a n (ITC binding stoichiometry, one set of sites model) [4] of 0.901, a n (ITC binding stoichiometry) [3] of 0.43 and a n (ITC binding stoichiometry, one set of sites model) [5] of 0.451.
